Consider one molecule from article PMC5467231, “The signalling receptor MCAM coordinates apical-basal polarity and planar cell polarity during morphogenesis” (Nature Communications, 2017).

The target of this assay is T1, recombinant human MCAM/Fc chimera (Sino Biological 10115-H02H) (human, UniProt P43121 24-559).
T1 construct: melanoma cell adhesion molecule (MCAM), human, part fused to Fc; IgG1 Fc served as the control chimera; source: bought: Sino Biological Inc
T1 sequence (looked up): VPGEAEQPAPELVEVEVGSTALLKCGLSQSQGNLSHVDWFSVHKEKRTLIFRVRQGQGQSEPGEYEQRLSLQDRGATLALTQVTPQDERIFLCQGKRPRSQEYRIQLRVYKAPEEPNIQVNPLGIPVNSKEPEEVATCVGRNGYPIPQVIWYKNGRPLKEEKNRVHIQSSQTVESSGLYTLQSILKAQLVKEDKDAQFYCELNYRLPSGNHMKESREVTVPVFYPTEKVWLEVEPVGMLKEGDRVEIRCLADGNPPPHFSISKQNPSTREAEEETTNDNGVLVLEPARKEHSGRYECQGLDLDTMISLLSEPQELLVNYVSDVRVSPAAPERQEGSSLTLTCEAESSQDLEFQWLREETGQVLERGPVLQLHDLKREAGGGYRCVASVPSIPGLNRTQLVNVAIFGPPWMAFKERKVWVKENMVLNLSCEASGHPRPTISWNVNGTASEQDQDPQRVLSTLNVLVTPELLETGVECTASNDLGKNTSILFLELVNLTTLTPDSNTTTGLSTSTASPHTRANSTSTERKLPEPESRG
The assay can be described thus: SPR; Biacore T100, CM5 chip, room temperature, 1x PBS with 0.05% Tween 20; MCAM/Fc, FGFR1/Fc, FGFR2/Fc or IgG1 Fc immobilised by amine coupling, soluble FGF2, FGF4 or FGF8 flowed over; 1:1 binding model. The following applies: both partners purified.

B1: recombinant FGF4 (Peprotech AF-100-31) (ligand, UniProt P08620 31-206, looked up)
chain: APTAPNGTLEAELERRWESLVALSLARLPVAAQPKEAAVQSGAGDYLLGIKRLRRLYCNVGIGFHLQALPDGRIGGAHADTRDSLLELSPVERGVVSIFGVASRFFVAMSSKGKLYGSPFFTDECTFKEILLPNNYNAYESYKYPGMFIALSKNGKTKKGNRVSPTMKVTHFLPRL
notes: fibroblast growth factor 4, recombinant, soluble; also called soluble FGF4; source: bought: Peprotech
A word on the Kd: it is the equilibrium constant for the complex coming apart. In the case of B1, the Kd is 0.97 nM.
